{
  "source": "patent US8445431",
  "system": "T1, [KGHK-Cu]+ copper(II) complex of KGHK",
  "T1 sequence": "KGHK",
  "data": [
    {"substance": "recombinant isoform of human Angiotensin Converting Enzyme (rhACE) corresponding to the ectodomain somatic ACE", "values": [
      {"measurement": "catalytic rate constant kobs for enzyme deactivation under oxidative conditions (ascorbate, dioxygen)", "value": "kobs˜2.86×10^-2 min^-1 for enzyme deactivation"}
    ]}
  ]
}
